Measured values from paper PMC5730568.

Legend:
[1] = biological target: SRSF1-His6 (23 kDa) (UniProt Q07955); test: EMSA; conditions: MBNL1 filter binding: 250 mM NaCl, 15 mM KCl, 50 mM Tris-HCl pH 8.0, 0.05% Tween-20, 1 mM MgCl2, 37 C, 15 min, SRSF1 EMSA: 100 mM NaCl, 20 mM HEPES-Na pH 8.0 …
[2] = test system: GST-MBNL1-His6 (truncated 41-kDa isoform); test: filter binding; conditions: MBNL1 filter binding: 250 mM NaCl, 15 mM KCl, 50 mM Tris-HCl pH 8.0, 0.05% Tween-20, 1 mM MgCl2, 37 C, 15 min, SRSF1 EMSA: 100 mM NaCl, 20 mM HEPES-Na pH 8.0 …

Sequence of UniProt Q07955 (Q07955 1-186): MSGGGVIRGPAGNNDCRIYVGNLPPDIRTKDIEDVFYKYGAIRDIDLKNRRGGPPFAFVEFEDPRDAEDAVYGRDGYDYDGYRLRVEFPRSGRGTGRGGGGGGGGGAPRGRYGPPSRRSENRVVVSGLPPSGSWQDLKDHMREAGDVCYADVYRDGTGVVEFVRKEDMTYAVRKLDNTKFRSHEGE

With Nfix-RNA the Kd ([1]; no AON) was 60 nM.

“GGGUUGGUACUAAGAAGUGCCUUUCCUGACGUCUCUGCUGCUUGGAACCGCUUCUAGAGCAGCCUCUGCUUUUGCCUUGCUUGCUGCCAGCUAGACUGACGACAGCACAUCCGCCCUCCACCUCUAGCCCAGACACCCCAUUUCUACUUCUAAUCAGGAGAAAAGCUCUGAGUAUCUGCCAUUGCCCUAGG [Mbnl1-RNA]” was tested, and the Kd [1] was 13 nM.

Mbnl1-RNA was tested, and the Kd ([1]; no AON) was 13 nM.

In the case of Atp2a1-RNA, the binding signal (fold suppression) ([2]; 0.5 uM 2'OMe AON (S4)) is reported as 8, the binding signal (fold suppression) ([2]; 0.5 uM 2'OMe-PS AON (S5)) is reported as 8 and the binding signal (fold suppression) ([2]; 20 uM DNA AON (S120)) is reported as 8.
